Assay: yeast display, Sf9 membrane polyspecificity reagent, FACS + sequencing; frameworks hold sequencing errors
In short: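 Using colony PCR, genes from sorted yeast display clones were amplified, then sequenced on MiSeq at 2 × 250 and filtered by CDR length. The clones had been stained with 10% biotinylated, detergent-solubilized Sf9 membrane reagent for 1 hour at 4 °C and sorted by FACS into low and high (top ~1%) gates on anti-HA and streptavidin fluorescence. Polyreactivity labels come from the gate of origin.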

Row | Sequence | polyreactivity (PSR sort gate)
1 | QVQLVESGGGLVQAGGSLRLSCAASGRIFLYYTMGWYRQAPGKERELVAAITRSGGSTYYADSVKGRFTISRDNAKNTVYLQMISLKPEDTAVYYGADRYWERYRAFNYWGQGTQVTVSS | high polyreactivity
2 | QVQLVESGGGLVQAGGSLRLSCAASGRIFNANAKGWYRQAPWKERELVAAITYSGGSTYYADSVKGRFTISRDNAKNTVYLQKNSLKPEDTAVYYCNVDYAGPYDYWGQGTQVTVSS | low polyreactivity
3 | QVQLVESGGGLVQAGGSLRLSCAASGRIFNDYAMGWYRQAPGKERELVAVIRRSGVSTYYADSVKGRFTISRDNAKNTVYLQMNSLKPEDTAVYYCAADIRSNRLYDGGYWGQGTQVTVSS | low polyreactivity
4 | QVQLVESGGGLVQAGGSLRLSCAASGRIFNFYAMGWYRQAPGKERELVASITSDGSTKYADSVKGRFTISRDNAKNTVYLKMNSLKPEDTAVFYCATDTWGSYYDDDDYWGQGTQVTVSS | high polyreactivity
5 | QVQLVESGGGLVQAGGSLRLSCAASGRIFNGNAMVWYRQAPGKERELVASINVRGGRTYYADSVKGRFTISRDNAKNTVYLQMNSLKPEDTAVYYWYADYAWYQRKSTVDYDYWGQVTQVTVSS | low polyreactivity
6 | QVQLVESGGGLVQAGGSLRLSCAASGRIFNGNDMGWYRQAPGKERELVAAISYSGGSTYYADSVKGRFTISRDNAKNTVYLQMNSLKPEDTAVYYCAALTIRVGSLGRDYWVQGTQVTVSS | low polyreactivity
7 | QVQLVESGGGLVQAGGSLRLSCAASGRIFNLYAMGWYRPAPGKESELVAAISGSGGRTSYADSVKGRFTISRDNAKNTVYLQMNSLKPEDTAVYYCAADYSFYTSFRYDYWGQGTQVTVSS | low polyreactivity
8 | QVQLVESGGGLVQAGGSLRLSCAASGRIFNPYAMGWYRQAPGKEREFVAAIRWSSGSTSYADSVKGRFTISRDNAKNTVYLQMNSLKPEDTAVYYCNTRSHSYYTLWGASRPRFDYWGQGTQVTVSS | high polyreactivity
9 | QVQLVESGGGLVQAGGSLRLSCAASGRIFNQYAMGWYIQAPGKERELVAAISRRGGSTYYADSVKGRFTISRDNAKNTVYLQMNSLKPEDTAVYYCAAVGGYASYFHLYYYWGQGTQVTVSS | high polyreactivity
10 | QVQLVESGGGLVQAGGSLRLSCAASGRIFNRNAMGWYRQAPGKERELVAAISRSGDNTYYADSVKGRFTISRDNAKNTVYLQMNSLKPEDTAVYYCAKDGSLDAQSYDYDYWGQGTQVTVSS | low polyreactivity
11 | QVQLVESGGGLVQAGGSLRLSCAASGRIFNTYAMGWYRQAPGKERELVAAITSSGGSTYYADSVKGRFTISRDNAKNTVYFQMNSLKPEDTAVYYCNAGSLHRRYYYEGDYWGQGTQVTVSS | high polyreactivity
12 | QVQLVESGGGLVQAGGSLRLSCAASGRIFNVYAMGWYRQAPGKERELVAAITYSGGSTYYADSVKVRITISRDNAKNSVYLQMIFLKPEDTAVYYCNARSSKRSSRGYDYWGQGTQVTVSS | high polyreactivity
13 | QVQLVESGGGLVQAGGSLRLSCAASGRIFNWYRMGWYRQAPGKERELVAAISRGGGRTYYADSVKGRFTISRDNAKNTVYLQMNSLKPEDTAVYYCNAVDASHAGPVGGAFRYDYWGQGTQVTVSS | high polyreactivity
14 | QVQLVESGGGLVQAGGSLRLSCAASGRIFNYNTMGWYRQAPGKERELVAAINFSGDRTYYADSVKGRFTISRDISKNTVYLQMNSLKPEDTAVYYCAAQGYWYGYQPGNYWGQGTQVTVSS | high polyreactivity
15 | QVQLVESGGGLVQAGGSLRLSCAASGRIFNYYAMGWYRQAPGKEREFVAAITSGGGSTYYADSVKGRFTISRDNAKNNVYLQMNSLKPEDTAVYYCNARLQSQVDAIGYGYWGQGTQVTVSS | high polyreactivity
16 | QVQLVESGGGLVQAGGSLRLSCAASGRIFNYYAMGWYRQAPGKERELVAAISSGGSTYYADSVKGRFTISRDNAKNTVYLQMNSLKPEDTAVYYCAAAYGDYGYWGQGTQVTVSS | high polyreactivity
17 | QVQLVESGGGLVQAGGSLRLSCAASGRIFNYYAMGWYRQAPGKERELVAVISRTGVRTHYADSVKGRFTISRDIAKNTVYLQMNRLKPEDTAVDYCNADSYVFRYDYWGQGSQVTVSS | high polyreactivity
18 | QVQLVESGGGLVQAGGSLRLSCAASGRIFNYYAMGWYRQAPGTERELVAAISTDGGSTYYADSVKGRFTISRDNAKNSVYLQMNSLKPEDTAVYYCAAYQYYDFSYSYDYWGQGTQVTVSS | low polyreactivity
19 | QVQLVESGGGLVQAGGSLRLSCAASGRIFNYYDMGWYRQAPGKERELVAAISSGGTTYYADSVKGRFTISRDNAKNTVYLQMNCLKREDTAVYFCASYYTPQRLRSGKFDYWGQGTQVTVST | high polyreactivity
20 | QVQLVESGGGLVQAGGSLRLSCAASGRIFPANAMGWYRQAPGKERELVAGITWRGDSTYYADSVKGRFTISRDNAKNTVYLQMNSLKPEDTAVYYCAATFRYTKLYYWGHGTQVTVSS | low polyreactivity
21 | QVQLVESGGGLVQAGGSLRLSCAASGRIFPANVMGWYRQAPGKERELVATIDNGGGTYYADSVKGRFTISRDNAKNTVYLQMNSLKPEDTAVYYCARDRHVRWGLKMDYWGQGTQVTVSS | low polyreactivity
22 | QVQLVESGGGLVQAGGSLRLSCAASGRIFPAYVMGWYRQAPGKERQLVATIDNGGGTYFADSVKGRFTISRDNAKNTVYLQMNRLKPVETAVYYCARDRHVRWGLNMDYWGQGTQVTVSS | low polyreactivity

Row | Sequence | polyreactivity (PSR sort gate)
23 | QVQLVESGGGLVQAGGSLRLSCAASGRIFPDNTMGGYRQAPGKERELVAVITYSGGSTYYADSVKGRFTISRDNAKNTVYLKMNSLKPEDTAVYYCAARDYYIWFAEVYYWGQGTQVSVSS | low polyreactivity
24 | QVQLVESGGGLVQAGGSLRLSCAASGRIFPEYAMGWYRQAPGKERELVAAITSGGHYADSVKGRFTISRDNAKNTVYLQINSLKPEDTAVYYCSALNVYGSADVTTLEMDYWGQGTLVTVSS | low polyreactivity
25 | QVQLVESGGGLVQAGGSLRLSCAASGRIFPFNDMGWYREAPGKEREFVADISDNGGSTYADSVKGRFTISRDNAKNTVYLQMNSLKPEDTAVYYCNAVYTSYRGGYYYWGQGTQGTVSS | low polyreactivity
26 | QVQLVESGGGLVQAGGSLRLSCAASGRIFPFYAMGWYRQAPGKERELVAAISTRGGSTYYADSVKGRFTISRDNAKNTVYLQMNSLKPADTAVYYCAADVQAVGYDYWGQGTQVTVSS | high polyreactivity
27 | QVQLVESGGGLVQAGGSLRLSCAASGRIFPGYAMGWYRQAPGKERELVAAISSRGGSTYYADSVKGRFTISRDNAKHTVYLQMNSLKPEDTAVYYCAAEPSWWNVFYPGYNYWGQGTQVTVSS | high polyreactivity
28 | QVQLVESGGGLVQAGGSLRLSCAASGRIFPGYAMGWYRQAPGKERELVAAISTNGGRTYYADSVKGRFTISRDNAKNTVYLQMNSLKPEDTAVYYCNAARAVYTQKRFDSWGQGTQVTVSS | high polyreactivity
29 | QVQLVESGGGLVQAGGSLRLSCAASGRIFPHNAMGWYRQAPGKERELVAAITKSGDDTYYADSVKGRFTISRDNAKNTVYLQMNSLKPEDTAVYYCAAYLSWYDYWGQGTQVTVSS | low polyreactivity
30 | QVQLVESGGGLVQAGGSLRLSCAASGRIFPINAMGWYRQAPGKERELVAAISGDGGDTYYADSVKGRFTISRDNAKNTVYLQMNSLKPEDTAVYYCAADALGYDYYYWGQGTQVTVSS | low polyreactivity
31 | QVQLVESGGGLVQAGGSLRLSCAASGRIFPINVMGWYRQAPGKERELVAAISGRGGSTYYADSVKGRFTISRDNAKNTVYLQMNSLKPEDTAVYYCAARSPYRYYYWGQGTQVTVSS | high polyreactivity
32 | QVQLVESGGGLVQAGGSLRLSCAASGRIFPKYAMGWYRHAPGTERELVGAISGSSGSTYYADSVKGRFTISRDNAKNTVYLQMNSLKPDDTAVYYCAARRYRISKTSGYCGQGTQVTVSS | high polyreactivity
33 | QVQLVESGGGLVQAGGSLRLSCAASGRIFPKYAMGWYRQAPGKERELVAAITGIGTSTYYADSVKGRFTISRDNAKNTVYLQMNSLKPEDTAVYYCAADTWTIVDYGYWGQGTQVTVSS | low polyreactivity
34 | QVQLVESGGGLVQAGGSLRLSCAASGRIFPLYAMGWSRQAPGKERELVAAITSSGGSTYYADSVKGRFTISRDNAKNTVYLQMNSLKPEDTAVYYCAADYSVYWLDYGYWGQGTLVTVSS | low polyreactivity
35 | QVQLVESGGGLVQAGGSLRLSCAASGRIFPLYDMGWYRQAPGKERELVAAISSGGTTYYADSVKGRFTISRDNAKNTVYLQMNSLKPEDTEVYYCARRPAQRWGRFDYWVQGTQVTVSS | low polyreactivity
36 | QVQLVESGGGLVQAGGSLRLSCAASGRIFPRNAMGWYSPAPGKERELVAAITRAGSTYYADSVKGRFTISRDNAKNTVYLQLNSLKPEDTAVYYCNRQWHRDVYGHDYWGQGTQVTVSS | high polyreactivity
37 | QVQLVESGGGLVQAGGSLRLSCAASGRIFPRNTMGWYRQAPGKERELVAAISTRGGSTYYADSVKGRSTISRDNAKNNVYLQMNSLKPEDTAVYYCAAGRRFPAIYSTGNYWGQGTQVTVSS | high polyreactivity
38 | QVQLVESGGGLVQAGGSLRLSCAASGRIFPRNTMGWYRQAPGKEREMVAAISTRGGSTYYADSVKGRFTISRDNAQNTVYLEMNSLKPEDTAVDYSAAGRRFPAIYSTGNYWGQGTQVTVSS | high polyreactivity
39 | QVQLVESGGGLVQAGGSLRLSCAASGRIFPRYAMGWYRQATGKERELVATISSGGSTYYADSVKGRFTISRDNAKNTVYLQMNSLKPEDTAVYYCAARKRPYTVINGMDYWGQGTQVTVSS | low polyreactivity
40 | QVQLVESGGGLVQAGGSLRLSCAASGRIFPSYAMGWYRQAPGKERELVAAISSSGGRTYYADSVKGRFTISRDNAKNTVYLQMNSLKPEDTAVYYCAARWVQYGVRYDYWGQGTQVTVSS | high polyreactivity
41 | QVQLVESGGGLVQAGGSLRLSCAASGRIFPSYAMGWYRQAPGKERELVAAITSSDSTYYADSVKGRFTISRDNAKNTVYLQMNSLKPEDTAVYYCAAAYSYSGWWWFGYWGQGTQVTVSS | high polyreactivity
42 | QVQLVESGGGLVQAGGSLRLSCAASGRIFPSYDMGWYRQAPGKDRELVATISSRGDSTYYADSVKGRFTISRDNAKNTVYLQMNSLKPEDTAVYYCAAERPFWEYDYWGQGTQVTVSS | low polyreactivity
43 | QVQLVESGGGLVQAGGSLRLSCAASGRIFPTNAMGWYRQAPGKERELVAAIPVSGGSTYYADSVKGRFTISRDNAKNTVYLQMNSLKPEDTAVYYCAADSSTYRFDYWGQGTQVTVSS | low polyreactivity

Source: the nanobody polyreactivity screen of Harvey et al. (2022)
